Results on three molecules are retold here after patent publication US20240352097A1 (NATIONAL SUN YAT SEN UNIVERSITY, published 2024).

Assay in all cases: cell-based or functional assay
For test [1], the target named is DENV-2 envelope (E) protein (Dengue virus serotype 2, UniProt P29990 281-679).
For the next test, the target named is T1, JEV envelope (E) protein (Japanese encephalitis virus, UniProt P0DOH8 295-699).
T1 chain: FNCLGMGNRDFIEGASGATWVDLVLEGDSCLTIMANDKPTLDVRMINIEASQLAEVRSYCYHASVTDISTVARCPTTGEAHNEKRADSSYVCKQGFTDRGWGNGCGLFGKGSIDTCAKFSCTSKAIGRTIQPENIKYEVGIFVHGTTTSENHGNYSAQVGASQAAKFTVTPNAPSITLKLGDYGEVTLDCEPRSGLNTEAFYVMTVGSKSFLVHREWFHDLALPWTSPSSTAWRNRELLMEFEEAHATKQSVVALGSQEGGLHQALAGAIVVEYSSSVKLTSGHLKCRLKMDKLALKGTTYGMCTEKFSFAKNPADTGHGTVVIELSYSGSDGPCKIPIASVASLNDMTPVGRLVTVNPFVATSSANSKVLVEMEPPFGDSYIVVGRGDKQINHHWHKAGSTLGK

For test [2], the target named is T2, DENV-1 envelope (E) protein (Dengue virus serotype 1, UniProt P27909 281-680).
T2 chain: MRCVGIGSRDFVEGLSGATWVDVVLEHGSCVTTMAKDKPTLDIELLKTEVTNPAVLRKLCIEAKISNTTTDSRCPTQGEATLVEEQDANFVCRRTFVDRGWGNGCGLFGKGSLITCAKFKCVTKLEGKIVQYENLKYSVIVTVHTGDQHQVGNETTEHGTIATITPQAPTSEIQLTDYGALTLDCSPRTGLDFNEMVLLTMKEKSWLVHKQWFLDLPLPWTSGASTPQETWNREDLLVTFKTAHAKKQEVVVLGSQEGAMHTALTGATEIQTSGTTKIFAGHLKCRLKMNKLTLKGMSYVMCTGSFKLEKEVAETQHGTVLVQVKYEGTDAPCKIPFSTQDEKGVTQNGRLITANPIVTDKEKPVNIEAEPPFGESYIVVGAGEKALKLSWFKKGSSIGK

Test [3] concerns the target DENV-4 envelope (E) protein (Dengue virus serotype 4, UniProt Q58HT7 280-679).
Test [4] has as its target T3, DENV-3 envelope (E) protein (Dengue virus serotype 3, UniProt Q5UB51 281-678).
T3 chain: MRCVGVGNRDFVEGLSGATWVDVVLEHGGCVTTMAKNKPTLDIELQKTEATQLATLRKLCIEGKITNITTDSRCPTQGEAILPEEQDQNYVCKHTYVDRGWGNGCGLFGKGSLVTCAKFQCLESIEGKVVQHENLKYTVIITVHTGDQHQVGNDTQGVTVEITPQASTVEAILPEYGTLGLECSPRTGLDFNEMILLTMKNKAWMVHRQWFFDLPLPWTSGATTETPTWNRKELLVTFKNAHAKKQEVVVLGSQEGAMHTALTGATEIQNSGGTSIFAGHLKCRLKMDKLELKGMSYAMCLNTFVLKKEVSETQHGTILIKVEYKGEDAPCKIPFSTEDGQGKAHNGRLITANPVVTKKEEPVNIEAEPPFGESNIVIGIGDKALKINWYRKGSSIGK

B1: K8b-IgG1 (antibody, V domains shown)
VH: QVQLVQPGAEVVKPGASVKLSCKTSGYTFTSNWMHWVKQAPGQGLEWIGEIDPSDSYTNYNQNFQGKAKLTVDKSTSTAYMEVSSLRSDDTAVYYCARGSNPYYYAMDYWGQGTSVTVSS
VL: EIVMMQSPLTLSLSPGERATLSCRASQSVSSNYLAWYQQRPGQAPRLLIYGVSSRATGVPVRFSGSGSGTDFTLTISRLEPEDFAVYYCQHYGGSLSWTFGQGTKVEIK
Consider B1, for which, in test [1], the “neutralization (FRµNT50)” value came out at 0.207 µg/mL.

B2: K8b-F(ab) (Fab, V domains shown)
VH: QVQLVQPGAEVVKPGASVKLSCKTSGYTFTSNWMHWVKQAPGQGLEWIGEIDPSDSYTNYNQNFQGKAKLTVDKSTSTAYMEVSSLRSDDTAVYYCARGSNPYYYAMDYWGQGTSVTVSS
VL: EIVMMQSPLTLSLSPGERATLSCRASQSVSSNYLAWYQQRPGQAPRLLIYGVSSRATGVPVRFSGSGSGTDFTLTISRLEPEDFAVYYCQHYGGSLSWTFGQGTKVEIKR
B2: the “neutralization (FRµNT50)” value in test [1] came out at 37 nM.

B3: K5-IgG1 (antibody, V domains shown)
VH: EVQLLESGAEVKKPGSSVKVSCQASGDTFSNSDINWVRQAPGQGLEWMGGIIPAYDTTNYARTFQGRVAITADKSTSTVYMELSRLRSEDTAVYYCATDQRDYFGLGNHFNAQHFWGQGTLVTVSS
VL: AIRMTQTPLSLSASVGDRVTITCRASQSISNYLNWYQQRPGKAPNLLIYTASNLHSGVPSRFSGSGSGTDFTLTISSLQPEDFATYYCQQSYSGGYTFGQGPSWEIK
For B3, the “neutralization (FRµNT50)” value was determined as 0.682 µg/mL with JEV envelope (E) protein; 0.215 µg/mL in test [1]; 0.771 µg/mL in test [2]; 1.51 µg/mL in test [3]; 1.21 µg/mL in test [4].
